From patent publication US11407840B2, “Antibodies to M(H)DM2/4 and their use in diagnosing and treating cancer” (NomoCan Pharmaceuticals LLC, priority 2017, dated 2022)

B1: NMC-204: mouse monoclonal antibody, IgG3 isotype, binds NMC-P2 (SEQ ID NO:2); VH SEQ ID NO:38, VL SEQ ID NO:39 (antibody, V domains shown)
VH: EVQLQESGSVLVRPGASVKLSCKASGDTLSGSWMHWAMQRPGQGLEWIGEIHLNRGTTNYNEKFKGKATVTVDTSSSTAYVDLSSLTSEDSAVYYCARSPGFAYWGQGTLVTVSA
VL: GIVMTQAAPSVPVTPGESVSISCRSSKSLLHSNGNSYLYWFLQRPGQSPQLLIYRMSNLASGVPDRFSGSGSGTAFTLRITRVEAEDVGVYYCMQHLEYPFTFGSGTKLEIK
modifications: mAb NMC-204 Heavy Chain Variable Region; mAb NMC-204 Light Chain Variable Region
B2: NMC-103: mouse monoclonal antibody, IgG1 isotype, binds NMC-P1 (SEQ ID NO:1); VH SEQ ID NO:36, VL SEQ ID NO:37 (antibody, V domains shown)
VH: EVQLQESGGGLVQPGGSLRLSCTTSGFTFTHYYMSWVRQPPGKALEWLGFIRNKAKGYTAEYSASVKGRFTISRDNSQSILYLQMNTLRPEDSATYYCARDIGDNWGQGTLVTVSS
VL: DIVMTQAAFSNPVTLGTSASISCRSSKNLLHSNGITYLYWYLQRPGQSPQLLISRVSNLASGVPNRFSGSESGTDFTLRISRVEAEDVGVYFCAQLLELPYTFGGGTKLEIK
modifications: mAb NMC-103 Heavy Chain Variable Region; mAb NMC-103 Light Chain Variable Region

Columns and labels:
[1] = molecular target: T1, recombinant full-length HDM2 protein (GST tagged) (Homo sapiens, UniProt Q00987); test: Western blot (immunoblot); type: binding; conditions: 1 μg/well protein; band at approximately 83 kD; FIG. 2
T1 construct: reacted with the recombinant full-length HDM2 protein; purchased Abcam ab188727
Protocol: Western Blot: As for immunoblots, 1 μg/well of recombinant FIDM2 protein (GST tagged, Abeam, Cat. No. ab188727) was separated on 8-16% sodium dodecyl sulfate (SDS) polyacrylamide gel and proteins were then transferred to polyvinylidene difluoride (PVDF) membrane. The membrane was blocked with 5% milk followed by incubation with monoclonal antibody NMC-103, NMC-204 or NMC-303 at 1 μg/πι ? in 1% milk in PBS for 2 hours. The membrane was then washed×3 times (10 minutes each) and incubated for 1 hour with corresponding HRP-conjugated secondary antibody (Goat anti-Mouse IgG (H&L), F(ab′)2 Frag Cross-adsorbed HRP (HRP-GaM F(ab′)2), ThermoFisher, Cat. No. A24524) diluted 1:5000 in 1% BSA-PBS. The membrane was then washed×3 times and incubated with Pierce ECL Plus Western Blotting Substrate (ThermoFisher, Cat. No. #32132) for 10 min before developing on a LICOR Scanner.

[2] = system: human breast cancer MCF-7 cells; test: Cell-ELISA, intact cells; type: binding; conditions: mAb 1 μg/mL, FIGS. 3-5
Protocol: (§1) Cell-ELISA Methodology: 8,000-10,000 cells/well of a 96-well microplate were grown overnight. The next day, unbound cells were washed off with sterile 1× PBS. The cells in each well were fixed with freshly prepared 4% buffered paraformaldehyde (pH 7.2) for 1 hour followed by 3 washes with 1× PBS. The wells were then blocked with 5% BSA in PBS (100 ? /well) for 2 hours at room temperature. Microplate wells were then washed 5 times with 300 ? of ice cold 1× PBS. MAbs NMC-103, NMC-204 or NMC-303 at 1 μg/mL in 1% BSA/PBS were then incubated with various cancer or normal untransformed cells for 2 hours at room temperature. Wells were then washed with 300 ? of ice-cold 1× PBS for 5 times and corresponding secondary antibody HRP-GaM F(ab′)2 diluted 1:2500 or 1:5000 in PBS with 1% BSA were added at 100 ? /well for 1 hour at room temperature followed by washing 5 times with 300 ? of ice-cold 1× PBS. TMB Substrate Solution (1-StepTM Ultra TMB-ELISA, ThermoFisher, Cat. No. 34028) was then added at 50 ? ? to each microplate well and incubated at room temperature for 30 minutes. The reaction was stopped by addition of 50 μL, of stop solution (ThermoFisher, Cat. No. SSO4) to each well and absorbance of each well was measured at OD450 nm. The absorbance value of each experimental well was corrected for the absorbance value obtained from wells treated with isotype-identical mAbs included in each experiment. The results are thus expressed as “relative binding”.

[3] = system: human pancreatic cancer MIA PaCa-2 cells; test: Cell-ELISA, intact cells; type: binding; conditions: for binding to intact, EDTA-released MiaPaCa-2 cells, cell-ELISA: EDTA 10 mmols, pH 7.2, 5 min, 37° C., FIG. 10; for binding to intact MIA PaCa-2 cells when competed with NMC-P2 peptide / binding to intact MIA PaCa-2 cells when competed with soluble NMC-P1 peptide: FIG. 8; for relative binding (reactivity) to intact cells, cell-ELISA: MIA PaCa-2, mAb 1 μg/mL, FIGS. 3-5
Protocol: as §1

[4] = system: Human pancreatic cancer MIAPaCa-2 cells; test: In vitro growth inhibition (cell count); type: cell-based; conditions: overnight
Protocol: Methodology used: Human pancreatic cancer MIAPaCa-2 cells (8,000 cells/well) were pre-incubated with mAb NMC-103, NMC-204 and anti-Cytochrome-C antibody (Santa Cruz, Cat No. sc-13156) at 1, 5 and 10 μg/mL, respectively. Cells in the presence of one of the antibodies at various concentrations were then plated in triplicate in 96-well cell culture plates overnight. The next day, each plate well was analyzed morphologically and a picture was taken from each well using EVOS FL microscope. Cell count was also performed and the number of living cells was graphed as % of control.

[5] = system: mouse colon cancer MC-38 cells (subcutaneous tumors); test: MC-38 syngeneic mouse model of colon cancer; type: in vivo, mouse (C57BL/6); conditions: for reduction in tumor volume versus control: FIG. 23
Protocol: Methodology used (Syngeneic Mouse Models of lung, colon and pancreatic cancer): To investigate the anti-tumor effects of HDM2-specific antibodies on lung, colon and pancreatic tumors in vivo, three well-known syngeneic mouse models of lung, colon and pancreatic cancer were used (Sharma et al, 1999, J. Immunol. 163 (9):5020-5028; McIntyre, 2015, Bioassays 37(8):909-920; Li, et al, 2015, Sci. Rep. 5:7856). Subcutaneous tumors were prepared by implanting either mouse Lewis Lung cancer LL/2 cells (2.5×10^5 cells/mouse), mouse colon cancer MC-38 cells (5×10^5 cells/mouse) or mouse pancreatic cancer Panc-2 cells (2×10^6 cells/mouse) in the right flanks of 8-week-old female C57BL/6 mice (n=6-7). The mice were returned to their respective cages after tumor implantation. From day 7 after tumor implantation, the tumor volumes were measured 2 times/week with a digital caliper. In the case of MC-38 and Panc-2 study, treatment started when the tumors reached an average of 70-80 mm^3. In the case of LL/2 study, tumor cell inoculation and treatment were initiated simultaneously. Mice were micro-chipped and registered following tumor implantation. Tumor volume measurements and body weights were recorded and mice were randomized into groups that received: A) mAb NMC-103 at 0.4 mg/kg (3 times a week for 3 weeks), 2 mg/kg (2 times a week for 3 weeks), or 4 mg/kg (2 times a week for 3 weeks); B) NMC-204 at 0.4 mg/kg (3 times a week for 3 weeks); C) isotype control mouse IgG1 (Abeam, Cat. No. ab 18447) or IgG3 (Abeam, Cat. No. ab 18392) at 0.4 mg/kg (3 times a week for 3 weeks) or 4 mg/kg (2 times a week for 3 weeks); D) Gemcitabine (25 mg/kg) and nab-paclitaxel (5 mg/kg) 2 times a week for 3 weeks; or E) a combination of gemcitabine (25 mg/kg), nab-paclitaxel (5 mg/kg) and mAb NMC-103 (2 mg/kg; 2 times a week for 3 weeks) or (10 mg/kg; 2 times a week for 2 weeks). All tumors were injected subcutaneously and all treatments were performed by intraperitoneal injection. Any mouse displaying prolonged adverse clinical signs, or with body weight loss exceeding 15% relative to body weight at day 0, was euthanized. Tumor measurements from post-treatment with HDM2-specific antibodies versus isotype control mouse antibodies versus standard of care treatment (gemcitabine and nab-paclitaxel) were made, and results are presented in FIGS. 16-19.
To further evaluate the NMC-103 dose-dependent anti-tumor effect, in a separate study, the MC-38 syngeneic tumor in mice (n=5) was re-established and treatment carried out similarly to the study of FIG. 17 with the following modification: increase of antibody concentration from 0.4 mg/kg to 10 mg/kg.

[6] = 0.4 mg/kg i.p. 3 times a week for 3 weeks

T1 sequence (Q00987 whole entry): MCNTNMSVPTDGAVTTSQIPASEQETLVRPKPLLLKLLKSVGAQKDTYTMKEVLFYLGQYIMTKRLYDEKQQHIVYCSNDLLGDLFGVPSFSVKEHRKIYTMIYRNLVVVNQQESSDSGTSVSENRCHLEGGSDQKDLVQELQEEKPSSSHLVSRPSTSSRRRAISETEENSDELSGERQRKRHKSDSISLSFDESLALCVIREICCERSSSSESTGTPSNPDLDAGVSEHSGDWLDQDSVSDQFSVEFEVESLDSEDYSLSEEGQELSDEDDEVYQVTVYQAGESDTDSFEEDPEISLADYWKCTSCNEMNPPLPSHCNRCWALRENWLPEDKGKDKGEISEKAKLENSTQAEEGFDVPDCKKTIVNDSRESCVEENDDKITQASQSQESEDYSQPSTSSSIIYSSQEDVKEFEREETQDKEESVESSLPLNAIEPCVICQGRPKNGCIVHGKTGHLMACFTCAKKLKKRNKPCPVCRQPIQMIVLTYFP

| Molecule | reactivity with recombinant full-length HDM2-GST protein in immunoblot [1] | relative binding (reactivity) to intact cells, cell-ELISA [2] | binding to intact, EDTA-released MiaPaCa-2 cells, cell-ELISA [3] | binding to intact MIA PaCa-2 cells when competed with NMC-P2 peptide [3] | binding to intact MIA PaCa-2 cells when competed with soluble NMC-P1 peptide [3] | relative binding (reactivity) to intact cells, cell-ELISA [3] | growth inhibitory effect (FIG. 12D; number of living cells graphed as % of control) ([4]; antibody 1 μg/mL) [%] | growth inhibitory effect (FIG. 12D; number of living cells graphed as % of control) ([4]; antibody 5 μg/mL) [%] | growth inhibitory effect (FIG. 12D; number of living cells graphed as % of control) ([4]; antibody 10 μg/mL) [%] | tumor volume ([5]; 0.4 mg/kg i.p. 3 times a week for 3 weeks, FIG. 18A) [mm^3] | reduction in tumor volume versus control [5, 6] | tumor cells stained positively for Ki67 ([5]; NMC-204 study, 0.4 mg/kg, FIG. 18B) [%] | binding to intact MIA PaCa-2 cells after pre-incubation with full-length recombinant HDM2 ([3]; FIG. 9) | tumor cells stained positive for Ki67 (immunohistochemistry) ([5]; NMC-103 study, 0.4 mg/kg, FIG. 17B) [%] | average tumor size ([5]; day 12, 10 mg/kg, 2 times per week for 2 weeks, n=5, FIG. 31) [mm^3] | tumor volume ([5]; treated for 18 days, 0.4 mg/kg i.p. 3 times a week for 2.5 weeks, FIG. 17A) [mm^3] |
| --- | --- | --- | --- | --- | --- | --- | --- | --- | --- | --- | --- | --- | --- | --- | --- | --- |
| B1 | reacted | reactivity | bound | competed | not with NMC-P1 | reactivity | 65 | 73 | 77 | 1670 | significant (p<0.005) reduction in tumor volume | 30 | – | – | – | – |
| B2 | reacted | reactivity | bound | did not have any effect | completely abolished | reactivity | 65 | 84 | 91 | – | significant (p<0.005) reduction in tumor volume | – | reduced | 5 | 210 | 1268 |
